Assay [1] deals with T1, Purified EGFR (R&D Systems, Minneapolis, Minn.) (Homo sapiens (Human), UniProt P00533 25-645).
T1 construct: Bought protein coated on an ELISA plate; also called immobilized EGFR; EGF receptors
Nature of the assay: EGF-EGFR binding assay. The method, then:
(§1) Purified EGFR (R&D Systems, Minneapolis, Minn.) was diluted in coating buffer (0.2 M sodium carbonate/bicarbonate pH 9.4, 0.5 1 g/mL) and immobilized on an ELISA plate by incubation at 4° C. overnight. […] The peroxidase reaction was stopped 30 min after the addition of 0.5 M H₂SO₄ ([…]/well), and the absorbance was measured at 450 nm with a multichannel microtiter plate reader.

Assay [2] addresses T1, Purified EGFR (R&D Systems, …). The experiment in a line: ELISA, EGFR on the plate, his6-tagged ligand 0-50 nM, HRP anti-his6 detection. The protocol:
as §1
A general note: An ELISA detects its analyte on a solid surface through an enzyme-linked reagent.

Some results are limits rather than exact numbers.

B1: mGM-CSF-hEGF fusion protein of Example 1 (other)
chain: SPITVTRPWKHVEAIKEALNLLDDMPVTLNEEVEVVSNEFSFKKLTCVQTRLKIFEQGLRGNFTKLKGALNMTASYYQTYCPPTPETDCETQVTTYADFIDSLKTFLTDIPFECKKPGQKVPGVGVPGVGNSDSECPLSHDGYCLHDGVCMYIEALDKYACNCVVGYIGERCQYRDLKWWELRHHHHHH
notes: The assays call it his6-tagged; also called GM-CSF-EGF conjugate; GM-CSF-EGF fusion protein
For B1, the Kd – broadly, the equilibrium constant for the complex coming apart – in assay [1] is approximately 0.01 µM; in assay [2] it was less than 0.005 µM.

For the origin of these results see patent publication US20200308241A1 (published 2020).
